In patent US20160279204A1, “PEPTIDES AND PHARMACEUTICAL COMPOSITIONS FOR USE IN THE TREATMENT BY NASAL ADMINISTRATION OF PATIENTS SUFFERING FROM ANXIETY AND SLEEP DISORDERS” (MAX-PLANCK-GESELLSCHAFT ZUR FÖRDERUNG DER WISSENSCHAFT E.V., priority 2011, published 2016):
Entries after “also recorded” stand apart in the source; their conditions may differ. No end group written: not given here.

Columns and labels:
[1] = tested on: NPS target cells in the murine brain; conditions: mouse, in vivo
Procedure: The mice were sacrificed 30 min post-injection.
Immunohistochemistry was performed on free-floating cryosections (40 μm).

[2] = tested on: EGFP-NPSR; assay: Cy3-NPS uptake in HEK cells transiently transfected with EGFP-NPSR; format: cell-based
Source text: In view of the fact that the NPSR is reported to be the only receptor mediating NPS effects (Duangdao et al., 2009) it may be concluded that the intracellular uptake of Cy3-NPS observed here also in vivo (FIGS. 1A-1D and FIG. 7A) likewise depends on the NPSR.

[3] = tested on: ventral hippocampus (VH); assay: Spread of Cy3-NPS after microinjection into area CA1 of the VH; format: in vivo, mouse; conditions: 0.07 nmol unilaterally into CA1 of VH, 30 min after injection
Procedure: Animals were fixed in a stereotactic frame and maintained under isoflurane anesthesia (Forene® 100%, V/V; induction: 2.5%; maintenance: 1.5%; in O2; flow rate: 1 L/min). The mice received acute analgesic treatment with Metacam s.c. during surgery (0.5 mg/kg; in NaCl). 23 gauge stainless-steel guide cannulas were implanted in the CA1 region of the VH at the following coordinates: 3.1 mm posterior, ±3 mm lateral from bregma, and 2 mm ventral from the skull surface (Franklin and Paxinos, 2007). The guide cannulas were fixed with two screws and a two-component adhesive. For behavioural experiments, animals were implanted bilaterally for later bilateral injection, whereas for Cy3-NPS injections, implantation was performed unilaterally. The animals were allowed to recover for at least 6 days before starting the behavioural experiments. Substance infusions were carried out manually, on mice anesthetised by brief inhalation of isoflurane, using a 30 gauge injection cannula connected to a Tygon tube and a 10 μL Hamilton syringe. After infusion, the injection cannula was kept in place for additional 30 s to prevent substance outflow.
Cy3-NPS was administered unilaterally at a concentration of 0.07 nmol in a volume of 0.7 μL ACSF. […] After mounting with a fluorescence-preserving medium (Shandon Immu-Mount, Thermo Scientific, Bonn, Germany), sections were stored at 4° C.

[4] = tested on: brain target neurons; conditions: mouse, in vivo, 4 h
Procedure: For intranasal application, the anesthetised mice were placed in a supine position, with the head supported at a 450 angle to the body as reported elsewhere (van den Berg et al., 2002). […] The mice were sacrificed at 15 min, 30 min and 4 hrs after the first application.
Brains were removed, post-fixed in 4% formaldehyde and cryoprotected in 20% sucrose, then shock-frozen in methylbutane. Immunohistochemistry was performed on free-floating cryosections (40 μm). The primary antibodies used were specific for neurofilament (1:1000; Abcam, Cambridge, UK) and GFAP (1:250; DAKO, Glostrup, Denmark). The secondary antibodies used were specific for mouse (Alexa 488 goat anti-mouse IgG) and rabbit (Alexa 488 donkey anti-rabbit IgG) (1:300; Invitrogen, Leek, The Netherlands). The sections were counterstained with DAPI (200 ng/ml; Carl Roth, Karlsruhe, Germany) and mounted with a fluorescence-preserving mounting medium (Shandon Immu-Mount, Thermo Scientific, Waltham, Mass., USA).
After acquisition, the images were processed using Photoshop and Illustrator (Adobe, San Jose, Calif., USA).

[5] = tested on: evoked neuronal activity flow from the dentate gyrus to area CA1; assay: Voltage-sensitive dye imaging (VSDI) in VH slices; parameters: species or system mouse; conditions: (R)-SHA 68 10 μM, pretreatment 15 min, NPS 1 μM
Procedure: According to Maggio and Segal (2007) and Fanselow and Dong (2010), VSDI experiments were conducted in the VH. Horizontal brain slices (350 μm-thick) were prepared as described in Refojo et al., 2011 and/or von Wolff et al., 2011). Only the first two slices from the ventral surface of the brain in which the CA1 region was clearly visible were used for the measurements. Staining of slices with the voltage-sensitive dye Di-4-ANEPPS and VSDI were carried out at room temperature (23-25° C.). For staining, slices were kept for 15 min in carbogenated (95% O2/5% CO2) ACSF containing Di-4-ANEPPS (7.5 μg/mL; <0.1% DMSO). The ACSF (pH 7.4) consisted of (in mM): 125 NaCl, 2.5 KCl, 25 NaHCO3, 1.25 NaH2PO4, 2 CaCl2, 1 MgCl2, and 25 glucose. Afterwards, slices were stored for at least 30 min in pure carbogenated ACSF. In the recording chamber, slices were continuously superfused with carbogenated ACSF (3 mL/min flow rate). VSDI and data analysis were performed using the MiCAM02 hard- and software package (BrainVision, Tokyo, Japan). The tandem-lens fluorescence microscope was equipped with the MiCAM02-HR camera and the 2× and 1× lens at the objective and condensing side, respectively. Acquisition settings were: 88×60 pixels frame size, 36.4×40.0 μm pixel size, and 2.2 ms sampling time. To reduce noise, four acquisitions subsequently recorded at intervals of 5 s were averaged. Neuronal activity was evoked by square pulse electrical stimuli (200 μs, 15-20 V) delivered to the dentate gyrus granule cell layer via a custom-made monopolar tungsten electrode (Teflon-insulated to the tip of 75 μm diameter). From recorded signals, the fractional change in fluorescence (ΔF/F) was calculated. For all quantifications, ΔF/F values were spatially and temporally smoothed using a 3×3×3 average filter. VSDI signals presented in images were smoothed with a 5×5×3 average filter. Pixelation of images was reduced by the interpolation function of the MiCAM02 software. […]

[6] = tested on: evoked neuronal activity flow from the dentate gyrus to area CA1; conditions: Refojo et al., 2011, von Wolff et al.; cited from earlier work

Q: With “Cy3-NPS: fluorescent NPS-conjugate (Cy3-NPS), Phoenix Pharmaceuticals (SFRNGVGTGMKKTSFQRAKS; also: Cy3 label, place not given here; UniProt P0C0P6 70-89, looked up)” as the compound, how does the “cellular fluorescence after ICV injection” value [1] read?
A: single cells already exhibited distinct patterns of fluorescence

Q: And the “co-localisation with neurofilament (NF) and GFAP markers” value [1]?
A: co-localised exclusively with the neuronal marker

Q: And the “subcellular localisation in target cells” value [1]?
A: found in the cytosol and throughout the processes of target cells

Q: And the “internalisation in HEK cells transfected with EGFP-NPSR” value ([2]; 10 min of incubation with Cy3-NPS)?
A: the receptor-ligand complex was internalised and subsequently accumulated in cytoplasmic and perinuclear vesicular structures

Q: And the “uptake in HEK cells transfected with empty EGFP-expression plasmid” value ([2]; control cells without NPSR)?
A: did not take up Cy3-NPS molecules

Q: And the “spread of injected Cy3-NPS” value [3]?
A: remained locally restricted to the VH and accumulated in single cells of the hippocampal pyramidal, radiate, and oriens layers; also recorded: locally restricted to the site of injection

Q: What about the “uptake in nuclei of the amygdala” value [3] of the same compound?
A: not observed

Q: And the “remaining Cy3-NPS after intranasal application” value [4]?
A: almost all traces of Cy3-NPS disappeared

Q: Which “effect of NPSR antagonist on the NPS effect” value [5] does the source give for `O=C(NCc1ccc(F)cc1)N1CCN2C(=O)OC(c3ccccc3)(c3ccccc3)[C@H]2C1` [(R)-SHA 68, reference compound] here?
A: completely abolished

Q: Which “activity flow from the dentate gyrus to area CA1” value [6] does the source give for “corticotropin-releasing hormone (SEEPPISLDLTFHLLREVLEMARAEQLAQQAHSNRKLMEII; ends and bridges not checked; UniProt P06850 154-194, looked up) [corticotropin-releasing hormone (CRH), anxiogenic neuropeptide]” here?
A: enhances this activity flow
